Stoichiometry N and Kd data for 2 substances are collected here from article PMC4931181.

For data set [1], the target named is yNap1_IF1 (G225D, S237D, T244D, D246R) (Saccharomyces cerevisiae) (UniProt P25293). Briefly: native MS.
The target is the same in data set [2]. The data set is described as follows: native MS. This is another data set of the same source.
The test system of data set [3] is H2A-H2B heterodimer;yNap1 (Xenopus laevis;Saccharomyces cerevisiae). The data set is described as follows: EMSA. On the technique in general: In EMSA bound probe runs differently from free probe, usually more slowly.
For data set [4], the system named is H2A-H2B heterodimer (Xenopus laevis). The data set is described as follows: EMSA.

Several values for one entry are separate records, joined by “and”; a condition that tells them apart may be missing. Equal entries are not always repeated. Where two headings read alike, the source gives them in different places.

The term stoichiometry N denotes a count of units in the complex or per binding partner. With “yNap1_IF1 (G225D, S237D, T244D, D246R) (from UniProt P25293 1-417) (natural protein)”, the stoichiometry N in data set [1] is 2 and 4; in data set [2] it was 2.

One may read the Kd as the equilibrium constant for the complex coming apart. A low value points to tighter binding. For the substance “(H3-H4)2-DNA tetrasome on 147-bp 601 DNA”, the Kd in data set [3] stood at 0.94 µM; in data set [4], 0.029 µM.
